Laboratory results from the RNAGym collection of RNA variant scans (doi:10.1093/nar/gkz1192).

B1: CPEB3 Ribozyme (parent)
chain: UAACAGGGGGCCACAGCAGAAGCGUUCACGUCGCAGCCCCUGUCAGAUUCUGGUGAAUCUGCGAAUUCUGCUGUAUAUCUC

Variants of: B1
Test: self-cleavage, relative activity (ratio to wild type); higher = more cleavage; in vitro, sequencing
Method in brief: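 Barcoded CPEB3 ribozyme mutants, produced by rounds of error-prone PCR, self-cleaved while being transcribed with T7 RNA polymerase for 5 hours at 37°C and during a subsequent 15 min DNase I step before EDTA was added. Sequencing of template-switched cDNA on Illumina gave cleaved and total reads, and DNA sequencing assigned barcodes to variants. Each variant's relative activity is its cleaved/total read fraction divided by the unmutated ribozyme's fraction, averaged across three batches. A variant needed a minimum of 5 reads.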

Row | Variant | self-cleavage
1 | UAACAGGGGGCCACAGCAGAAGCGUUCACGUCGCAGCCCCUGUCAGAUUCUGGUGAAUCUGCGAAUUCUGCGGUAAAUCUC [U72G U76A] | 0.54
2 | UAACAGGGGGCCACAGCAGAAGCGUUCACGUCGCAGCCCCUGUCAGAUUCUGGUGAAUCUGCGAAUUCUGCGGUACAUCUC [U72G U76C] | 0.97
3 | UAACAGGGGGCCACAGCAGAAGCGUUCACGUCGCAGCCCCUGUCAGAUUCUGGUGAAUCUGCGAAUUCUGCGGUAUAACUC [U72G U78A] | 1.13
4 | UAACAGGGGGCCACAGCAGAAGCGUUCACGUCGCAGCCCCUGUCAGAUUCUGGUGAAUCUGCGAAUUCUGCGGUAUACCUC [U72G U78C] | 1.01
5 | UAACAGGGGGCCACAGCAGAAGCGUUCACGUCGCAGCCCCUGUCAGAUUCUGGUGAAUCUGCGAAUUCUGCGGUAUAGCUC [U72G U78G] | 1
6 | UAACAGGGGGCCACAGCAGAAGCGUUCACGUCGCAGCCCCUGUCAGAUUCUGGUGAAUCUGCGAAUUCUGCGGUAUAUCCC [U72G U80C] | 1.19
7 | UAACAGGGGGCCACAGCAGAAGCGUUCACGUCGCAGCCCCUGUCAGAUUCUGGUGAAUCUGCGAAUUCUGCUAUAUAUCUC [G73A] | 1.27
8 | UAACAGGGGGCCACAGCAGAAGCGUUCACGUCGCAGCCCCUGUCAGAUUCUGGUGAAUCUGCGAAUUCUGCUAUGUAUCUC [G73A A75G] | 1.19
9 | UAACAGGGGGCCACAGCAGAAGCGUUCACGUCGCAGCCCCUGUCAGAUUCUGGUGAAUCUGCGAAUUCUGCUAUAUGUCUC [G73A A77G] | 1.31
10 | UAACAGGGGGCCACAGCAGAAGCGUUCACGUCGCAGCCCCUGUCAGAUUCUGGUGAAUCUGCGAAUUCUGCUAAAUAUCUC [G73A U74A] | 1.25
11 | UAACAGGGGGCCACAGCAGAAGCGUUCACGUCGCAGCCCCUGUCAGAUUCUGGUGAAUCUGCGAAUUCUGCUAUACAUCUC [G73A U76C] | 1.26
12 | UAACAGGGGGCCACAGCAGAAGCGUUCACGUCGCAGCCCCUGUCAGAUUCUGGUGAAUCUGCGAAUUCUGCUAUAUACCUC [G73A U78C] | 1.32
13 | UAACAGGGGGCCACAGCAGAAGCGUUCACGUCGCAGCCCCUGUCAGAUUCUGGUGAAUCUGCGAAUUCUGCUAUAUAUCAC [G73A U80A] | 1.25
14 | UAACAGGGGGCCACAGCAGAAGCGUUCACGUCGCAGCCCCUGUCAGAUUCUGGUGAAUCUGCGAAUUCUGCUAUAUAUCCC [G73A U80C] | 1.36
15 | UAACAGGGGGCCACAGCAGAAGCGUUCACGUCGCAGCCCCUGUCAGAUUCUGGUGAAUCUGCGAAUUCUGCUCUAUAUCUC [G73C] | 1.25
16 | UAACAGGGGGCCACAGCAGAAGCGUUCACGUCGCAGCCCCUGUCAGAUUCUGGUGAAUCUGCGAAUUCUGCUCUAUAGCUC [G73C U78G] | 1.23
17 | UAACAGGGGGCCACAGCAGAAGCGUUCACGUCGCAGCCCCUGUCAGAUUCUGGUGAAUCUGCGAAUUCUGCUCUAUAUCCC [G73C U80C] | 1.29

Row | Variant | self-cleavage
18 | UAACAGGGGGCCACAGCAGAAGCGUUCACGUCGCAGCCCCUGUCAGAUUCUGGUGAAUCUGCGAAUUCUGCUUUAUAUCUC [G73U] | 1.28
19 | UAACAGGGGGCCACAGCAGAAGCGUUCACGUCGCAGCCCCUGUCAGAUUCUGGUGAAUCUGCGAAUUCUGCUUUAUAUUUC [G73U C79U] | 1.32
20 | UAACAGGGGGCCACAGCAGAAGCGUUCACGUCGCAGCCCCUGUCAGAUUCUGGUGAAUCUGCGAAUUCUGCUUUACAUCUC [G73U U76C] | 1.21
21 | UAACAGGGGGCCACAGCAGAAGCGUUCACGUCGCAGCCCCUGUCAGAUUCUGGUGAAUCUGCGAAUUCUGCUUUAUAUCCC [G73U U80C] | 1.28
22 | UAACAGGGGGCCACAGCAGAAGCGUUCACGUCGCAGCCCCUGUCAGAUUCUGGUGAAUCUGCGAAUUCUGCUGAAUAUCUC [U74A] | 1.25
23 | UAACAGGGGGCCACAGCAGAAGCGUUCACGUCGCAGCCCCUGUCAGAUUCUGGUGAAUCUGCGAAUUCUGCUGACUAUCUC [U74A A75C] | 1.44
24 | UAACAGGGGGCCACAGCAGAAGCGUUCACGUCGCAGCCCCUGUCAGAUUCUGGUGAAUCUGCGAAUUCUGCUGAGUAUCUC [U74A A75G] | 1.31
25 | UAACAGGGGGCCACAGCAGAAGCGUUCACGUCGCAGCCCCUGUCAGAUUCUGGUGAAUCUGCGAAUUCUGCUGAUUAUCUC [U74A A75U] | 1.29
26 | UAACAGGGGGCCACAGCAGAAGCGUUCACGUCGCAGCCCCUGUCAGAUUCUGGUGAAUCUGCGAAUUCUGCUGAAUGUCUC [U74A A77G] | 1.26
27 | UAACAGGGGGCCACAGCAGAAGCGUUCACGUCGCAGCCCCUGUCAGAUUCUGGUGAAUCUGCGAAUUCUGCUGAACAUCUC [U74A U76C] | 1.34
28 | UAACAGGGGGCCACAGCAGAAGCGUUCACGUCGCAGCCCCUGUCAGAUUCUGGUGAAUCUGCGAAUUCUGCUGAAUAACUC [U74A U78A] | 1.18
29 | UAACAGGGGGCCACAGCAGAAGCGUUCACGUCGCAGCCCCUGUCAGAUUCUGGUGAAUCUGCGAAUUCUGCUGAAUACCUC [U74A U78C] | 1.23
30 | UAACAGGGGGCCACAGCAGAAGCGUUCACGUCGCAGCCCCUGUCAGAUUCUGGUGAAUCUGCGAAUUCUGCUGAAUAUCAC [U74A U80A] | 1.26
31 | UAACAGGGGGCCACAGCAGAAGCGUUCACGUCGCAGCCCCUGUCAGAUUCUGGUGAAUCUGCGAAUUCUGCUGAAUAUCCC [U74A U80C] | 1.24
32 | UAACAGGGGGCCACAGCAGAAGCGUUCACGUCGCAGCCCCUGUCAGAUUCUGGUGAAUCUGCGAAUUCUGCUGCAUAUCUC [U74C] | 1.23
33 | UAACAGGGGGCCACAGCAGAAGCGUUCACGUCGCAGCCCCUGUCAGAUUCUGGUGAAUCUGCGAAUUCUGCUGCGUAUCUC [U74C A75G] | 1.25
34 | UAACAGGGGGCCACAGCAGAAGCGUUCACGUCGCAGCCCCUGUCAGAUUCUGGUGAAUCUGCGAAUUCUGCUGCUUAUCUC [U74C A75U] | 1.26
